Experimental data: patent US20050260177A1

Assays:
[1] = target: Ra12-C888P fusion protein (human C888P fused to Mycobacterium tuberculosis Ra12); test: ELISA, RC888P on plate, serum 1:512000, average of 2 wells
[2] = target: Ra12-C888P fusion protein (human C888P fused to Mycobacterium tuberculosis Ra12); test: ELISA, RC888P on plate, serum 1:2000, average of 2 wells
[3] = target: Ra12-C888P fusion protein (human C888P fused to Mycobacterium tuberculosis Ra12); test: ELISA, RC888P on plate, serum 1:256000, well 2
[4] = target: Ra12-C888P fusion protein (human C888P fused to Mycobacterium tuberculosis Ra12); test: ELISA, RC888P on plate, serum 1:1000, well 2
[5] = target: Ra12-C888P fusion protein (human C888P fused to Mycobacterium tuberculosis Ra12); test: ELISA, RC888P on plate, serum 1:256000, average of 2 wells
[6] = target: Ra12-C888P fusion protein (human C888P fused to Mycobacterium tuberculosis Ra12); test: ELISA, RC888P on plate, serum 1:32000, well 1
[7] = target: Ra12-C888P fusion protein (human C888P fused to Mycobacterium tuberculosis Ra12); test: ELISA, RC888P on plate, serum 1:64000, well 1
[8] = target: Ra12-C888P fusion protein (human C888P fused to Mycobacterium tuberculosis Ra12); test: ELISA, RC888P on plate, serum 1:8000, average of 2 wells
[9] = target: Ra12-C888P fusion protein (human C888P fused to Mycobacterium tuberculosis Ra12); test: ELISA, RC888P on plate, serum 1:1024000, well 1
[10] = target: Ra12-C888P fusion protein (human C888P fused to Mycobacterium tuberculosis Ra12); test: ELISA, RC888P on plate, serum 1:4000, average of 2 wells
[11] = target: Ra12-C888P fusion protein (human C888P fused to Mycobacterium tuberculosis Ra12); test: ELISA, RC888P on plate, serum 1:8000, well 2
[12] = target: Ra12-C888P fusion protein (human C888P fused to Mycobacterium tuberculosis Ra12); test: ELISA, RC888P on plate, serum 1:4000, well 1
[13] = target: Ra12-C888P fusion protein (human C888P fused to Mycobacterium tuberculosis Ra12); test: ELISA, RC888P on plate, serum 1:1000, average of 2 wells
[14] = target: Ra12-C888P fusion protein (human C888P fused to Mycobacterium tuberculosis Ra12); test: ELISA, RC888P on plate, serum 1:512000, well 2
[15] = target: Ra12-C888P fusion protein (human C888P fused to Mycobacterium tuberculosis Ra12); test: ELISA, RC888P on plate, serum 1:1024000, average of 2 wells
[16] = target: Ra12-C888P fusion protein (human C888P fused to Mycobacterium tuberculosis Ra12); test: ELISA, RC888P on plate, serum 1:256000, well 1
[17] = target: Ra12-C888P fusion protein (human C888P fused to Mycobacterium tuberculosis Ra12); test: ELISA, RC888P on plate, serum 1:2000, well 2
[18] = target: Ra12-C888P fusion protein (human C888P fused to Mycobacterium tuberculosis Ra12); test: ELISA, RC888P on plate, serum 1:1000, well 1
[19] = target: Ra12-C888P fusion protein (human C888P fused to Mycobacterium tuberculosis Ra12); test: ELISA, RC888P on plate, serum 1:128000, average of 2 wells
[20] = target: Ra12-C888P fusion protein (human C888P fused to Mycobacterium tuberculosis Ra12); test: ELISA, RC888P on plate, serum 1:512000, well 1
[21] = target: Ra12-C888P fusion protein (human C888P fused to Mycobacterium tuberculosis Ra12); test: ELISA, RC888P on plate, serum 1:16000, well 2
[22] = target: Ra12-C888P fusion protein (human C888P fused to Mycobacterium tuberculosis Ra12); test: ELISA, RC888P on plate, serum 1:16000, well 1
[23] = target: Ra12-C888P fusion protein (human C888P fused to Mycobacterium tuberculosis Ra12); test: ELISA, RC888P on plate, serum 1:128000, well 2
[24] = target: Ra12-C888P fusion protein (human C888P fused to Mycobacterium tuberculosis Ra12); test: ELISA, RC888P on plate, serum 1:64000, well 2
[25] = target: Ra12-C888P fusion protein (human C888P fused to Mycobacterium tuberculosis Ra12); test: ELISA, RC888P on plate, serum 1:32000, average of 2 wells
[26] = target: Ra12-C888P fusion protein (human C888P fused to Mycobacterium tuberculosis Ra12); test: ELISA, RC888P on plate, serum 1:4000, well 2
[27] = target: Ra12-C888P fusion protein (human C888P fused to Mycobacterium tuberculosis Ra12); test: ELISA, RC888P on plate, serum 1:16000, average of 2 wells
[28] = target: Ra12-C888P fusion protein (human C888P fused to Mycobacterium tuberculosis Ra12); test: ELISA, RC888P on plate, serum 1:64000, average of 2 wells
[29] = target: Ra12-C888P fusion protein (human C888P fused to Mycobacterium tuberculosis Ra12); test: ELISA, RC888P on plate, serum 1:8000, well 1
[30] = target: Ra12-C888P fusion protein (human C888P fused to Mycobacterium tuberculosis Ra12); test: ELISA, RC888P on plate, serum 1:1024000, well 2
[31] = target: Ra12-C888P fusion protein (human C888P fused to Mycobacterium tuberculosis Ra12); test: ELISA, RC888P on plate, serum 1:32000, well 2
[32] = target: Ra12-C888P fusion protein (human C888P fused to Mycobacterium tuberculosis Ra12); test: ELISA, RC888P on plate, serum 1:2000, well 1
[33] = target: Ra12-C888P fusion protein (human C888P fused to Mycobacterium tuberculosis Ra12); test: ELISA, RC888P on plate, serum 1:128000, well 1

## Preimmune sera (antibody)
[1]
  ELISA absorbance at 450 nm: 0.06 OD450
[2]
  ELISA absorbance at 450 nm: 0.06 OD450
[3]
  ELISA absorbance at 450 nm: 0.06 OD450
[4]
  ELISA absorbance at 450 nm: 0.06 OD450
[5]
  ELISA absorbance at 450 nm: 0.06 OD450
[6]
  ELISA absorbance at 450 nm: 0.06 OD450
[7]
  ELISA absorbance at 450 nm: 0.06 OD450
[8]
  ELISA absorbance at 450 nm: 0.06 OD450
[9]
  ELISA absorbance at 450 nm: 0.06 OD450
[10]
  ELISA absorbance at 450 nm: 0.06 OD450
[11]
  ELISA absorbance at 450 nm: 0.06 OD450
[12]
  ELISA absorbance at 450 nm: 0.06 OD450
[13]
  ELISA absorbance at 450 nm: 0.07 OD450
[14]
  ELISA absorbance at 450 nm: 0.05 OD450
[15]
  ELISA absorbance at 450 nm: 0.06 OD450
[16]
  ELISA absorbance at 450 nm: 0.06 OD450
[17]
  ELISA absorbance at 450 nm: 0.05 OD450
[18]
  ELISA absorbance at 450 nm: 0.09 OD450
[19]
  ELISA absorbance at 450 nm: 0.06 OD450
[20]
  ELISA absorbance at 450 nm: 0.06 OD450
[21]
  ELISA absorbance at 450 nm: 0.05 OD450
[22]
  ELISA absorbance at 450 nm: 0.06 OD450
[23]
  ELISA absorbance at 450 nm: 0.06 OD450
[24]
  ELISA absorbance at 450 nm: 0.05 OD450
[25]
  ELISA absorbance at 450 nm: 0.06 OD450
[26]
  ELISA absorbance at 450 nm: 0.05 OD450
[27]
  ELISA absorbance at 450 nm: 0.06 OD450
[28]
  ELISA absorbance at 450 nm: 0.06 OD450
[29]
  ELISA absorbance at 450 nm: 0.06 OD450
[30]
  ELISA absorbance at 450 nm: 0.06 OD450
[31]
  ELISA absorbance at 450 nm: 0.05 OD450
[32]
  ELISA absorbance at 450 nm: 0.06 OD450
[33]
  ELISA absorbance at 450 nm: 0.06 OD450
